This note sets out measurements from article PMC10611751 (2023).

What all share (experiment): ITC
On the technique in general: In ITC the heat of successive injections is recorded.

Assay [1] deals with E-cadherin CTD site-1, 3 to A (mouse, UniProt P09803 734-884, Y755A | Y756A | Y757A | Y861A | Y863A | W867A).
Assay [2] has as its target E-cadherin CTD site-3 to A (mouse, UniProt P09803 734-884, Y861A | Y863A | W867A).
Assay [3] addresses E-cadherin CTD site-2, 3 to A (mouse, UniProt P09803 734-884, Y829A | Y837A | Y861A | Y863A | W867A).
Assay [4] concerns the target E-cadherin CTD site-1, 2 to A (mouse, UniProt P09803 734-884, Y755A | Y756A | Y757A | Y829A | Y837A).
Assay [5] addresses E-cadherin CTD site-1 to A (mouse, UniProt P09803 734-884, Y755A | Y756A | Y757A).
For assay [6], the target named is E-cadherin CTD site-2 to A (mouse, UniProt P09803 734-884, Y829A | Y837A).

B1: Ankyrin-G 24 ANK repeats (residues 38-855) (domain or fragment)
chain: KSDANASYLRAARAGHLEKALDYIKNGVDVNICNQNGLNALHLASKEGHVEVVSELLQREANVDAATKKGNTALHIASLAGQAEVVKVLVTNGANVNAQSQNGFTPLYMAAQENHLEVVRFLLDNGASQSLATEDGFTPLAVALQQGHDQVVSLLLENDTKGKVRLPALHIAARKDDTKAAALLLQNDTNADIESKMVVNRATESGFTPLHIAAHYGNINVATLLLNRAAAVDFTARNDITPLHVASKRGNANMVKLLLDRGAKIDAKTRDGLTPLHCGARSGHEQVVEMLLDRAAPILSKTKNGLSPLHMATQGDHLNCVQLLLQHNVPVDDVTNDYLTALHVAAHCGHYKVAKVLLDKKANPNAKALNGFTPLHIACKKNRIRVMELLLKHGASIQAVTESGLTPIHVAAFMGHVNIVSQLMHHGASPNTTNVRGETALHMAARSGQAEVVRYLVQDGAQVEAKAKDDQTPLHISARLGKADIVQQLLQQGASPNAATTSGYTPLHLSAREGHEDVAAFLLDHGASLSITTKKGFTPLHVAAKYGKLEVASLLLQKSASPDAAGKSGLTPLHVAAHYDNQKVALLLLDQGASPHAAAKNGYTPLHIAAKKNQMDIATSLLEYGADANAVTRQGIASVHLAAQEGHVDMVSLLLSRNANVNLSNKSGLTPLHLAAQEDRVNVAEVLVNQGAHVDAQTKMGYTPLHVGCHYGNIKIVNFLLQHSAKVNAKTKNGYTPLHQAAQQGHTHIINVLLQNNASPNELTVNGNTALAIARRLGYISVVDTLKVVTEEIMTTTTITEKHKMNVPETMNEVLDMS
In general, Kd refers to the free concentration of one partner at which half of the binding sites on the other are occupied at equilibrium, for simple one-to-one binding. For the molecule B1, the dissociation constant (Kd) is 4.9 µM in assay [1]; 4.2 µM in assay [2]; 3.3 µM in assay [3]; 6.3 µM in assay [4]; 2 µM in assay [5]; 2.9 µM in assay [6].
